Like-named read-outs stand apart in the source and are kept apart here. Where no end group is shown, it is not given here.
Experiments:
[1] = tested on: T1, LL37ARRA (CLLGDFARRAKEKIG)
T1 sequence: CLLGDFARRAKEKIG

[2] = molecular target: T2, LL37ARRA (CLLGDFARRAKEKIG)
T2 chain: CLLGDFARRAKEKIG

[3] = molecular target: T3, LL37FRRA (CLLGDFFRRAKEKIG)
T3 chain: CLLGDFFRRAKEKIG

[4] = molecular target: T4, LL37FRRV (CLLGDFFRRVKEKIG)
T4 chain: CLLGDFFRRVKEKIG

[5] = molecular target: T5, LL37FRRY (CLLGDFFRRYKEKIG)
T5 chain: CLLGDFFRRYKEKIG

[6] = molecular target: T6, LL37YRRA (CLLGDFYRRAKEKIG)
T6 chain: CLLGDFYRRAKEKIG

[7] = molecular target: T7, OmpT (omptin outer membrane protease of Escherichia coli), recombinant, reconstituted in detergent micelles (Escherichia coli, UniProt P09169 21-317); test: cell-based or functional assay
T7 sequence: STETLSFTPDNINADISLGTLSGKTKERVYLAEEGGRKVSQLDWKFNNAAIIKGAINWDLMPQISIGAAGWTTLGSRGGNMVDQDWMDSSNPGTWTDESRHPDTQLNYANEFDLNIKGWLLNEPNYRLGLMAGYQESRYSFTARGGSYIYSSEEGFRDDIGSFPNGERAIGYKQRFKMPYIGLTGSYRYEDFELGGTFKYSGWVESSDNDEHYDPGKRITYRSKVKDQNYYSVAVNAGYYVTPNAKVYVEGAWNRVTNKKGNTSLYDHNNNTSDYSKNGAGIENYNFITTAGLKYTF

PgtE (omptin protease, present on pathogenic Salmonella typhi)
proteolytic activity, measured as the change in PT6 fluorescence with time [1]: OmpT exhibits a higher preference for LL37ARRA (SEQ ID NO: 11) than does PgtE

B1: OmpT (omptin outer membrane protease of Escherichia coli), recombinant, reconstituted in detergent micelles (protein)
chain: STETLSFTPDNINADISLGTLSGKTKERVYLAEEGGRKVSQLDWKFNNAAIIKGAINWDLMPQISIGAAGWTTLGSRGGNMVDQDWMDSSNPGTWTDESRHPDTQLNYANEFDLNIKGWLLNEPNYRLGLMAGYQESRYSFTARGGSYIYSSEEGFRDDIGSFPNGERAIGYKQRFKMPYIGLTGSYRYEDFELGGTFKYSGWVESSDNDEHYDPGKRITYRSKVKDQNYYSVAVNAGYYVTPNAKVYVEGAWNRVTNKKGNTSLYDHNNNTSDYSKNGAGIENYNFITTAGLKYTF
proteolytic activity, measured as the change in PT6 fluorescence with time [2]: OmpT exhibits a higher preference for LL37ARRA (SEQ ID NO: 11) than does PgtE
rate of cleavage by OmpT [3]: cleaved by the protease (OmpT) much more rapidly than the LL37FRRY peptide substrate used in Examples 1-5
time to full cleavage by OmpT [3]: fully cleaved by OmpT in less than 20 min
SAMDI-MS screen of a peptide array for cleavage by omptin proteases [4]: 400 times better then original peptide
cleavage, confirmed by MALDI-TOF [4]: it was cleaved at the dibasic site (-R8-R9-) to yield two short fragments of eight and seven residues
rate of cleavage by OmpT [5]: cleaved by the protease (OmpT) much more rapidly than the LL37FRRY peptide substrate used in Examples 1-5
rate of cleavage by OmpT [6]: cleaved by the protease (OmpT) much more rapidly than the LL37FRRY peptide substrate used in Examples 1-5
time to full cleavage by OmpT [6]: fully cleaved by OmpT in less than 20 min

CLLGDFFRRAKEKIG [LL37FRRA (CLLGDFFRRAKEKIG)]
colour of PT6 under UV-A light after incubation with OmpT [7]: ≤ 10 min
incubation time with OmpT for an almost complete reduction in PT6 fluorescence [7]: < 20 min

CLLGDFYRRAKEKIG [LL37YRRA (CLLGDFYRRAKEKIG)]
colour of PT6 under UV-A light after incubation with OmpT [7]: ≤ 10 min
incubation time with OmpT for an almost complete reduction in PT6 fluorescence [7]: < 20 min

CLLGDFFRRYKEKIG [LL37FRRY (CLLGDFFRRYKEKIG)]
colour of PT6 under UV-A light after incubation with OmpT [7]: ≤ 10 min
incubation time with OmpT for an almost complete reduction in PT6 fluorescence [7]: < 20 min

CLLGDFFRRVKEKIG-NH2 [LL37FRRV (CLLGDFFRRVKEKIG)]
incubation time with OmpT for an almost complete reduction in PT6 fluorescence [7]: > 40 min

Source: US20220205015A1 (NANYANG TECHNOLOGICAL UNIVERSITY, published 2022)
